Data set [1] concerns HeLa Kyoto. In words: solubility in G1/S (NP-40 vs SDS abundance) (log2 ratio); higher = more soluble. The note with it: cell cycle stage: G1/S.
The subject of data set [2] is HeLa Kyoto. In words: melting temperature (median over replicates), in situ; higher = more thermally stable.
For data set [3], the system named is HeLa Kyoto. The data set can be described thus: solubility change mitosis vs G1/S (difference of NP-40 vs SDS log2 ratios) (log2 ratio difference); higher = more soluble in mitosis.
In data set [4] the test system is HeLa Kyoto. In words: thermal stability score vs G1/S (z-score of summed log2 fold changes over temperatures); higher = more thermally stable than in G1/S.
The mark [5] stands for this setting: cell cycle stage: early G1 (4.5 h after nocodazole release).
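Throughout, for melting temperature (median over replicates), in situ: HeLa Kyoto cells synchronized by double thymidine or nocodazole block, proteins quantified by TMT10plex mass spectrometry, three independent biological replicates.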
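Throughout, for solubility change mitosis vs G1/S (difference of NP-40 vs SDS log2 ratios): synchronized HeLa Kyoto cells (double thymidine block for G1/S, nocodazole release for mitosis), protein amounts in NP-40 versus SDS lysates quantified by mass spectrometry, three biological replicates.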
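Throughout, for solubility in G1/S (NP-40 vs SDS abundance): HeLa Kyoto cells arrested at G1/S by double thymidine block, proteins quantified by TMT10plex mass spectrometry in mild NP-40 versus SDS extracts, three biological replicates.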
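Throughout, for thermal stability score vs G1/S (z-score of summed log2 fold changes over temperatures): synchronized HeLa Kyoto cells, proteins quantified by TMT10plex mass spectrometry, three biological replicates, mitosis taken 0.5 h after nocodazole release, G1/S directly after double thymidine block.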

On to “MSWMFKRDPVWKYLQTVQYGVHGNFPRLSYPTFFPRFEFQDVIPPDDFLTSDEEVDSVLFGSLRGHVVGLRYYTGVVNNNEMVALQRDPNNPYDKNAIKVNNVNGNQVGHLKKELAGALAYIMDNKLAQIEGVVPFGANNAFTMPLHMTFWGKEENRKAVSDQLKKHGFKLGPAPKTLGFNLESGWGSGRAGPSYSMPVHAAVQMTTEQLKTEFDKLFEDLKEDDKTHEMEPAEAIETPLLPHQKQALAWMVSRENSKELPPFWEQRNDLYYNTITNFSEKDRPENVHGGILADDMGLGKTLTAIAVILTNFHDGRPLPIERVKKNLLKKEYNVNDDSMKLGGNNTSEKADGLSKDASRCSEQPSISDIKEKSKFRMSELSSSRPKRRKTAVQYIESSDSEEIETSELPQKMKGKLKNVQSETKGRAKAGSSKVIEDVAFACALTSSVPTTKKKMLKKGACAVEGSKKTDVEERPRTTLIICPLSVLSNWIDQFGQHIKSDVHLNFYVYYGPDRIREPALLSKQDIVLTTYNILTHDYGTKGDSPLHSIRWLRVILDEGHAIRNPNAQQTKAVLDLESERRWVLTGTPIQNSLKDLWSLLSFLKLKPFIDREWWHRTIQRPVTMGDEGGLRRLQSLIKNITLRRTKTSKIKGKPVLELPERKVFIQHITLSDEERKIYQSVKNEGRATIGRYFNEGTVLAHYADVLGLLLRLRQICCHTYLLTNAVSSNGPSGNDTPEELRKKLIRKMKLILSSGSDEECAICLDSLTVPVITHCAHVFCKPCICQVIQNEQPHAKCPLCRNDIHEDNLLECPPEELARDSEKKSDMEWTSSSKINALMHALTDLRKKNPNIKSLVVSQFTTFLSLIEIPLKASGFVFTRLDGSMAQKKRVESIQCFQNTEAGSPTIMLLSLKAGGVGLNLSAASRVFLMDPAWNPAAEDQCFDRCHRLGQKQEVIITKFIVKDSVEENMLKIQNKKRELAAGAFGTKKPNADEMKQAKINEIRTLIDL [HLTF]”, for which the “solubility in G1/S (log2)” value in the data set with HeLa Kyoto [1] was -0.124. For the same sequence, the melting temperature turned out to be 48.9 °C with HeLa Kyoto [2] (cell cycle stage: G1/S) and 50.2 °C in the data set on HeLa Kyoto [2] (cell cycle stage: mitosis). The “solubility change mitosis (log2)” value in the data set on HeLa Kyoto [3] was -0.0719. In addition, the thermal stability score with HeLa Kyoto [4] (setting [5]) was determined as 2.36; in the data set on HeLa Kyoto [4] (cell cycle stage: mitosis), 4.68.

In the case of “MSVRVARVAWVRGLGASYRRGASSFPVPPPGAQGVAELLRDATGAEEEAPWAATERRMPGQCSVLLFPGQGSQVVGMGRGLLNYPRVRELYAAARRVLGYDLLELSLHGPQETLDRTVHCQPAIFVASLAAVEKLHHLQPSVIENCVAAAGFSVGEFAALVFAGAMEFAEGLYAVKIRAEAMQEASEAVPSGMLSVLGQPQSKFNFACLEAREHCKSLGIENPVCEVSNYLFPDCRVISGHQEALRFLQKNSSKFHFRRTRMLPVSGAFHTRLMEPAVEPLTQALKAVDIKKPLVSVYSNVHAHRYRHPGHIHKLLAQQLVSPVKWEQTMHAIYERKKGRGFPQTFEVGPGRQLGAILKSCNMQAWKSYSAVDVLQTLEHVDLDPQEPPR [MT]”, the “solubility in G1/S (log2)” value in the data set on HeLa Kyoto [1] was -0.124. Further, the melting temperature came out at 59 °C in the data set with HeLa Kyoto [2] (cell cycle stage: G1/S) and 56.6 °C with HeLa Kyoto [2] (cell cycle stage: mitosis). Besides, the “solubility change mitosis (log2)” value in the data set with HeLa Kyoto [3] is -0.162. For the same sequence, the thermal stability score in the data set on HeLa Kyoto [4] (setting [5]) was -1.31; with HeLa Kyoto [4] (cell cycle stage: mitosis) it was -2.45.

With “MAAAEPSPRRVGFVGAGRMAGAIAQGLIRAGKVEAQHILASAPTDRNLCHFQALGCRTTHSNQEVLQSCLLVIFATKPHVLPAVLAEVAPVVTTEHILVSVAAGVSLSTLEELLPPNTRVLRVLPNLPCVVQEGAIVMARGRHVGSSETKLLQHLLEACGRCEEVPEAYVDIHTGLSGSGVAFVCAFSEALAEGAVKMGMPSSLAHRIAAQTLLGTAKMLLHEGQHPAQLRSDVCTPGGTTIYGLHALEQGGLRAATMSAVEAATCRAKELSRK [PYCRL]”, the “solubility in G1/S (log2)” value in the data set on HeLa Kyoto [1] stood at 0.155. In addition, the melting temperature was 53.5 °C in the data set with HeLa Kyoto [2] (cell cycle stage: G1/S) and 55.3 °C in the data set on HeLa Kyoto [2] (cell cycle stage: mitosis). Besides, the “solubility change mitosis (log2)” value with HeLa Kyoto [3] came out at 0.0528. In addition, the thermal stability score is -1.28 in the data set with HeLa Kyoto [4] (setting [5]) and -1.85 in the data set on HeLa Kyoto [4] (cell cycle stage: mitosis).

On to “MENSSAASASSEAGSSRSQEIEELERFIDSYVLEYQVQGLLADKTEGDGESERTQSHISQWTADCSEPLDSSCSFSRGRAPPQQNGSKDNSLDMLGTDIWAANTFDSFSGATWDLQPEKLDFTQFHRKVRHTPKQPLPHIDREGCGKGKLEDGDGINLNDIEKVLPAWQGYHPMPHEVEIAHTKKLFRRRRNDRRRQQRPPGGNKPQQHGDHQPGSAKHNRDHQKSYQGGSAPHPSGRPTHHGYSQNRRWHHGNMKHPPGDKGEAGAHRNAKETMTIENPKLEDTAGDTGHSSLEAPRSPDTLAPVASERLPPQQSGGPEVETKRKDSILPERIGERPKITLLQSSKDRLRRRLKEKDEVAVETTTPQQNKMDKLIEILNSMRNNSSDVDTKLTTFMEEAQNSTNSEEMLGEIVRTIYQKAVSDRSFAFTAAKLCDKMALFMVEGTKFRSLLLNMLQKDFTVREELQQQDVERWLGFITFLCEVFGTMRSSTGEPFRVLVCPIYTCLRELLQSQDVKEDAVLCCSMELQSTGRLLEEQLPEMMTELLASARDKMLCPSESMLTRSLLLEVIELHANSWNPLTPPITQYYNRTIQKLTA [CTIF]”, for which the “solubility in G1/S (log2)” value in the data set with HeLa Kyoto [1] was 0.0528. The sequence also gave a melting temperature in the data set with HeLa Kyoto [2] (cell cycle stage: G1/S) of 52.1 °C. In addition, the “solubility change mitosis (log2)” value in the data set with HeLa Kyoto [3] came to 0.157. The thermal stability score in the data set on HeLa Kyoto [4] (setting [5]) was -0.292; in the data set on HeLa Kyoto [4] (cell cycle stage: mitosis) it was 0.109.

Take “MAAPAVSGLSRQVRCFSTSVVRPFAKLVRPPVQVYGIEGRYATALYSAASKQNKLEQVEKELLRVAQILKEPKVAASVLNPYVKRSIKVKSLNDITAKERFSPLTTNLINLLAENGRLSNTQGVVSAFSTMMSVHRGEVPCTVTSASPLEEATLSELKTVLKSFLSQGQVLKLEAKTDPSILGGMIVRIGEKYVDMSVKTKIQKLGRAMREIV [ATP5O]”: the “solubility in G1/S (log2)” value in the data set with HeLa Kyoto [1] came out at 0.365. Also, the melting temperature in the data set on HeLa Kyoto [2] (cell cycle stage: G1/S) worked out at 53.4 °C; with HeLa Kyoto [2] (cell cycle stage: mitosis) it was 53.2 °C. Moreover, in the data set on HeLa Kyoto [3], the “solubility change mitosis (log2)” value worked out at 0.116. In addition, the thermal stability score in the data set on HeLa Kyoto [4] (setting [5]) was -2.17; in the data set on HeLa Kyoto [4] (cell cycle stage: mitosis), -2.27.

Source of the values: the supplement of paper PMC5998384.
